{
  "source": "paper PMC8410769",
  "about": "“A CDK-regulated chromatin segregase promoting chromosome replication” (Nature Communications, 2021)",
  "proteins": {"B1": {"name": "Yta7 ATP-binding mutant (K460A, Walker A), 3xFLAG-tagged (enzyme, S. cerevisiae, UniProt P40340 1-1379, looked up)", "chain": "MARNLRNRRGSDVEDASNAKVGYETQIKDENGIIHTTTRSLRKINYAEIEKVFDFLEDDQVMDKDETPVDVTSDEHHNNNQKGDDEDDDVDLVSPHENARTNEELTNERNLRKRKAHDPEEDDESFHEEDVDDDEEEEEADEFEDEYLDEDSKDNNRRRRAADRKFVVPDPDDDEEYDEDDEEGDRISHSASSKRLKRANSRRTRSSRHPETPPPVRRALRSRTRHSRTSNEENDDENDNSRNEALTLADEIRELQEDSPIREKRFLRERTKPVNYKLPPPLTASNAEEFIDKNNNALSFHNPSPARRGRGGWNASQNSGPTRRLFPTGGPFGGNDVTTIFGKNTNFYNQVPSAFSDNNNNKLILDSDSSDDEILPLGVTPKTKKENTQKKKKKKPEIADLDPLGVDMNVNFDDIGGLDNYIDQLKEMVALPLLYPELYQNFNITPPRGVLFHGPPGTGATLMARALAASCSSDERKITFFMRKGADILSKWVGEAERQLRLLFEEAKKHQPSIIFFDEIDGLAPVRSSKQEQIHASIVSTLLALMDGMDNRGQVIVIGATNRPDAVDPALRRPGRFDREFYFPLPDVKARFKILQIQTRKWSSPLSTNFIDKLAFLTKGYGGADLRSLCTEAALISIQRSFPQIYRSNDKLLVDPSKIKVKVSDFMLALKKIVPSSARSTGSSPQPLPELIKPLLADQLNNLKNKLDYMLNIKDTTFQRNTSLLQNFIDYEEYSGEEEEHDKYGGNEDTSSFRSYEFFESMAESQICKPRLLINGPKGNGQQYVGAAILNYLEEFNVQNLDLASLVSESSRTIEAAVVQSFMEAKKRQPSVVFIPNLDIWINTIPENVILVLSGLFRSLQSNEKILLLCLAENLDISEVKNGILSDFAFDKNIFQLHKPSKENITRYFSNLIELLKTKPSDIPMKKRRVKPLPELQKVTSNAAPTNFDENGEPLSEKVVLRRKLKSFQHQDMRLKNVLKIKLSGLMDLFKNRYKRFRKPPIDDAFLVHLFEPETSNDPNWQPAYIKDENMILEVSTGRKFFNMDLDIVEERLWNGYYSEPKQFLKDIELIYRDANTIGDRERVIKASEMFANAQMGIEEISTPDFIQECKATRQRDLERQELFLEDEEKRAAMELEAKEQSQENILQEPDLKDNKANEFGVAAGNQLQAQLQTTINTASIVNNSEVPQPIDTNLYKKEIPAAIPSAVDKEKAVIPEDSGANEEYTTELIQATCTSEITTDDDERARKEPKENEDSLQTQVTEENFSKIDANTNNINHVKEIQSVNKPNSLHETVEKRERSPIPKEVVEPEQGKKSDKELILTPEQIKKVSACLIEHCQNFTVSQLEDVHSSVAKIIWKSKSAWDKTGTVDEIIKFLSE", "notes": "Yta7, Saccharomyces cerevisiae; K460A mutant of the Walker A motif within the active AAA+ domain; also called ATPase mutant; source: S. cerevisiae (GAL1-10 promoter, G1-arrested, endogenous copy eliminated), purified (anti-FLAG M2, MonoQ, SEC); not shown: 3xFLAG, C-terminal, kept"}},
  "target": "the molecule itself",
  "experiment": "SEC; Superose 6 (3.2/300) in 150 mM KCl, 25 mM Tris-HCl pH 7.2, 5% glycerol, 0.05% NP-40, 1 mM EDTA, 4 mM MgCl2; purified Yta7 and mutants",
  "data": [
    {"protein": "B1", "values": [
      {"measurement": "stoichiometry N", "value": 6}
    ]}
  ]
}
